Assay results: paper PMC5095173, “Disulfide-activated protein kinase G Iα regulates cardiac diastolic relaxation and fine-tunes the Frank–Starling response” (Nature Communications, 2016)
Where no end group is shown, it is not given here.

B1: oxidized (WT) protein kinase G Iα, Cys42 disulfide dimer (enzyme, human, UniProt Q13976 1-671, looked up)
chain: MSELEEDFAKILMLKEERIKELEKRLSEKEEEIQELKRKLHKCQSVLPVPSTHIGPRTTRAQGISAEPQTYRSFHDLRQAFRKFTKSERSKDLIKEAILDNDFMKNLELSQIQEIVDCMYPVEYGKDSCIIKEGDVGSLVYVMEDGKVEVTKEGVKLCTMGPGKVFGELAILYNCTRTATVKTLVNVKLWAIDRQCFQTIMMRTGLIKHTEYMEFLKSVPTFQSLPEEILSKLADVLEETHYENGEYIIRQGARGDTFFIISKGTVNVTREDSPSEDPVFLRTLGKGDWFGEKALQGEDVRTANVIAAEAVTCLVIDRDSFKHLIGGLDDVSNKAYEDAEAKAKYEAEAAFFANLKLSDFNIIDTLGVGGFGRVELVQLKSEESKTFAMKILKKRHIVDTRQQEHIRSEKQIMQGAHSDFIVRLYRTFKDSKYLYMLMEACLGGELWTILRDRGSFEDSTTRFYTACVVEAFAYLHSKGIIYRDLKPENLILDHRGYAKLVDFGFAKKIGFGKKTWTFCGTPEYVAPEIILNKGHDISADYWSLGILMYELLTGSPPFSGPDPMKTYNIILRGIDMIEFPKKIAKNAANLIKKLCRDNPSERLGNLKNGVKDIQKHKWFEGFNWEGLRKGTLTPPIIPSVASPTDTSNFDSFPEDNDEPPPDDNSGWDIDF
modifications: intermolecular disulfide bond at Cys42 between the two subunits
notes: protein kinase G Iα (cGMP-dependent protein kinase 1, alpha isoform), human, untagged WT construct; also called PKGIα; source: FreeStyle 293-F cells, transfected, purified (8-AEA-cAMP agarose, size exclusion chromatography); incubated with 10 mM lipoic acid to obtain the disulfide dimer

What was measured:
[1] = target: B1; test: ITC; PLN (1–23) (700 μM) titrated into the cell containing WT disulfide PKGIα or the C42S mutant (70 μM); 25 °C; 50 mM sodium phosphate buffer pH 7.4, 100 mM NaCl; no cyclic nucleotide; details: both partners purified
[2] = target: the molecule itself; test: cross-linking; intermolecular Cys42 disulfide of purified recombinant PKGIα (lipoic acid or air oxidation) seen as dimer by SDS-PAGE

Kd [1]	stoichiometry N [1]	Binder	stoichiometry N [2]
~7 µM	1 PLN peptide per PKGIα disulfide dimer	Ac-MEKVQYLTRSAIRRASTIEMPQQ (peptide, UniProt P26678 1-23, looked up, cardiac phospholamban, human, residues 1-23 (N-terminal cytoplasmic domain); also called PLN_(1–23); PLN (1–23); source: synthetic peptide; bought: PeptideSynthetics (Peptide Protein Research Ltd, UK))	–
–	–	B1	2
